Experimental data reported in patent publication US8022177B2, “Peptides and calcium regulation in mammalian cells” (The Board of Trustees of the University of Illinois, priority 2005, dated 2011).
Residue numbers refer to the chain shown, from its start. Names and notes keep the numbering of the source. Like-named read-outs stand apart in the source and are kept apart here. Each block holds one molecule with its values, some of them ahead of it.

Key:
[1] = target: T1, Cav3.1 (Homo sapiens, UniProt O43497); assay: Whole-cell patch clamp of Cav3.1 current in Cav3.1-HEK cells transfected with γ6, γ4, their first transmembrane domains or point mutants (Example 3); assay type: cell-based; conditions: for Normalized Current Density: relative to vector control (100.0%), Table 3.3
T1 construct: expressed in transfected cells; host or cells: HEK-293, stably transfected
T1 sequence (O43497 whole entry, the tested form may be a part): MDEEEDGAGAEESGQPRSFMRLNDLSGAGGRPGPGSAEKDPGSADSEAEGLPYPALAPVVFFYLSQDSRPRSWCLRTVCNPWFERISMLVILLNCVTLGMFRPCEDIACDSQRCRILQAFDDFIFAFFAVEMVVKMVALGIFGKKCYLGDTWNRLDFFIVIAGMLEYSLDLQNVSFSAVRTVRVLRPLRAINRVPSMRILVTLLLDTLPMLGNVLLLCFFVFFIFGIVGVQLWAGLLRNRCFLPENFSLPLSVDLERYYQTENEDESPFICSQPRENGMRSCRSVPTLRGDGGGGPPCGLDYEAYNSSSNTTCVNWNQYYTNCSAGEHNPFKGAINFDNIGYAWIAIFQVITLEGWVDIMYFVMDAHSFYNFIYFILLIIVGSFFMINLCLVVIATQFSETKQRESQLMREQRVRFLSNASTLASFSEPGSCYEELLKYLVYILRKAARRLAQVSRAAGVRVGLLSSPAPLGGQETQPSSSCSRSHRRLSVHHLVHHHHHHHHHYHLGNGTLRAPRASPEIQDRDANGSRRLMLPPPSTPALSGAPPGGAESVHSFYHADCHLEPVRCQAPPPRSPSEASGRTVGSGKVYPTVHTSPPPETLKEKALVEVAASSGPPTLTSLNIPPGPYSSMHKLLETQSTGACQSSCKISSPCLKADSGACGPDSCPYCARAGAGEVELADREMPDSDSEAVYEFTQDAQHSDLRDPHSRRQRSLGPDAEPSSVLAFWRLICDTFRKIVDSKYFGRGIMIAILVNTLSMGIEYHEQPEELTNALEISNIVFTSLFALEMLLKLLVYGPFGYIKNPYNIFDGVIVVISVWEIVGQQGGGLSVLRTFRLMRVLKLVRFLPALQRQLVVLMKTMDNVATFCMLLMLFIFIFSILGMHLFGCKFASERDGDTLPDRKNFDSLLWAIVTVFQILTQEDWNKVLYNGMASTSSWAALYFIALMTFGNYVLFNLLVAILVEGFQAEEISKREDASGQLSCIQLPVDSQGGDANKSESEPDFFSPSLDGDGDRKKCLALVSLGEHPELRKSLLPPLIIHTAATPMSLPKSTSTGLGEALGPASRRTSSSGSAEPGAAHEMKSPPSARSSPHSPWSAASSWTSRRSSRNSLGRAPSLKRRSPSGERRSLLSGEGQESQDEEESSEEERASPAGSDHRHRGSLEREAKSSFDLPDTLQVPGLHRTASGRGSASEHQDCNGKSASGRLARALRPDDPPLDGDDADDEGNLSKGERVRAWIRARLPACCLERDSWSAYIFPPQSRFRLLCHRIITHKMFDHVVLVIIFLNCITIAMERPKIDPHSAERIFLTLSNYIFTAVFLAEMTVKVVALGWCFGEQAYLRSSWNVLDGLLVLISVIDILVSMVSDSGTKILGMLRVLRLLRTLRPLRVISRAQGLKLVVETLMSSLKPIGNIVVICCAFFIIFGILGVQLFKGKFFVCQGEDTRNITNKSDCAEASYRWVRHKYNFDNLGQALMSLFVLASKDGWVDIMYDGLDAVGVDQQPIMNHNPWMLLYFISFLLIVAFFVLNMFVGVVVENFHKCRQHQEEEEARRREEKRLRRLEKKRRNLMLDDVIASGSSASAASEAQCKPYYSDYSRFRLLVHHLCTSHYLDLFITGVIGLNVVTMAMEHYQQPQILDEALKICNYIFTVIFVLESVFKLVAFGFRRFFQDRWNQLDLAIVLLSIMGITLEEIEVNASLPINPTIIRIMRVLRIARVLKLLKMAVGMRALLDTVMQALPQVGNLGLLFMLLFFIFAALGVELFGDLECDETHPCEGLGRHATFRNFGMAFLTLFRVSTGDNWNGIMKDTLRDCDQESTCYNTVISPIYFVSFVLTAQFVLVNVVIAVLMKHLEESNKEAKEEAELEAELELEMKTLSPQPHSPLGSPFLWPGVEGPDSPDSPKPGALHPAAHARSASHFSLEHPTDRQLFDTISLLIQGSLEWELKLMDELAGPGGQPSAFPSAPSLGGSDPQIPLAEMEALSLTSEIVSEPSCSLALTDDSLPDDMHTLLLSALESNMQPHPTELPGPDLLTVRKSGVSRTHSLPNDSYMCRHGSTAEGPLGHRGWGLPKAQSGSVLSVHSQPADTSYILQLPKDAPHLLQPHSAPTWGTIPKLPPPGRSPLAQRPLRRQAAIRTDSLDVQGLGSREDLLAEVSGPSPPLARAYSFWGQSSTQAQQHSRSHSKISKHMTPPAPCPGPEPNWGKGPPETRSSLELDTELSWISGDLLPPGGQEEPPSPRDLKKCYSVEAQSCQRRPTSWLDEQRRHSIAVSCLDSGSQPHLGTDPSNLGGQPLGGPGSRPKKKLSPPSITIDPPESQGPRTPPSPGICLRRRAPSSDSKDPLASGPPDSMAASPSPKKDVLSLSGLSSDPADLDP
Description: Transfection. HEK-293 cells stably transfected with the Cav3.1 α1 subunit were transiently transfected with vectors containing GFP and γ subunits cDNA when the cultures reached 50% confluency. Lipofectamine 2000 reagent (Invitrogen) was used following manufacturer's protocol.
Electrophysiology. Whole cell Ca2+ currents were recorded at room temperature using an Axon Instruments Axopatch-1D amplifier, a Digidata 1200 interface and pClamp8.0 software about 48 hours after transfection. Cell capacitance was typically around 10 pF, but ranged from 5-40 pF. Recording micropipettes were made from borosilicate glass (2-3 Mohms tip resistance), and filled with solution contained (in mM) 130 NaCl, 10 EGTA, 2 MgCl2, 1 CaCl2, 10 HEPES, 3 Tris-ATP, and 0.3 Li2GTP or 0.3 Tris-GTP. Tyrode's solution was used as the bath solution. It contained (in mM) 137 NaCl, 1 KCl, 1 MgCl2, 0.33 NaH2PO4, 2 CaCl2, 10 HEPES. Both solutions were adjusted to pH 7.4 with NaOH and 280 mOsm with sucrose.
We determined the biophysical characteristics of Cav3.1 currents in transfected HEK-293 cells and effects of the first transmembrane domain of γ4 and γ6 on these properties. Test parameters were optimized for studying Cav3.1 current. The time constant (τ) of deactivation (τdeac) was obtained by single exponential fitting of tail currents. For Cav3.1 currents, the cells were clamped at a holding potential of −100 mV, then depolarized to −20 mV for 4 msec, and repolarized to various voltages from −120 mV to −60 mV at 10 mV interval for 150 msec to elicit tail currents.
The voltage dependence of activation was measured using tail currents. For Cav3.1 currents, the cells were clamped at a holding potential equal to −100 mV, and then depolarized briefly to a conditioning potential, varying from −90 mV to +60 mV, and finally clamped at −60 mV before inactivation. Using this protocol, all tail currents are elicited at the same driving force (at −60 mV), so the current amplitude accurately reflects the number of channels opened during the different conditioning potentials.
A series of conditioning prepulses of 500 msec were used to measure voltage dependence of inactivation in our experiments. Channels initially open and then reach steady-state inactivation during the 500 msec long prepulses. The membrane potential is stepped to a fixed test potential of −20 mV, where maximal peak current is elicited. Currents elicited at each test potential reflect how many channels are not in the inactivated state after a steady-state inactivation; that is, how many channels are available to open. The conditioning prepulse potentials were changed from −120 mV to 50 mV, and the test potential is fixed at −20 mV.
Data collection and analysis. To probe the structural features necessary for the function of γ subunits, we are using HEK-293 cell line stably transfected with Cav3.1 α1 subunit. These cells are then transiently transfected with vectors containing various chimeric, truncated or mutant gamma subunits. […] There is inherent variation in calcium current density in the HEK-Cav3.1 stable cell line likely due to differences in the batch used, passenger number, extent of cellular confluence, or for other unknown reasons. The averaged current density of each test group of cells was normalized to the mean current density of a parallel control group of cells plated from the same batch of cells and analyzed on the same day. A minimum of 5 cells (typically 7 to 10) from each group was used to calculate the mean behavior of test and control cells from each days recording. At least two independent transfections were performed for each test condition. Overall, averages were obtained from 21 control groups of cells that had been transfected with empty vector over several months. The data are pooled together to reduce the variance. […] The current density of the control cells over many months justified the pooling of data recorded from different batches of cells transfected with mutated γ subunits. […]

[2] = target: T1, Cav3.1; assay: Whole-cell patch clamp of Cav3.1 current in Cav3.1/HEK cells transfected with chimeras, truncations and point mutants (Example 6); assay type: cell-based; conditions: FIG. 38, FIG. 41
Description: Transfection. HEK-293 cells stably transfected with either Cav3.1 or Cav3.2 were transiently transfected, at 50% confluency, with a bicistronic vector encoding both GFP and γ subunit cDNA's using Lipofectamine 2000 reagent (Invitrogen, Carlsbad, Calif.) as per the manufacturer's recommendations. Cells were visualized using an Nikon inverted microscope with an FITC filter.
Electrophysiology. Whole cell Ca^2+ currents were recorded using an Axon Instruments Axopatch-1D amplifier and Clampex 8.0 software. Pipettes were made from boroscillicate glass and had typical resistances of 2-4 Mohms. The pipette solution contained (in mM) 130 NaCl, 10 EGTA, 2 or 5 MgCl2, 1 CaCl2, 10 HEPES, 3 Tris-ATP, and 0.3 Li2GTP. Two different bath solutions were used. The first, used for experiments with γ subunit chimeras, contained (in mM) 130 NaCl, 1 MgCl2, 2 CaCl2, 10 glucose, 10 HEPES, and 0.03 TTX. The second, used for experiments with γ subunit containg point mutations, contained (in mM) 137 NaCl, 1 KCl, 1 MgCl2, 0.33 NaH2PO4, 2 CaCl2, 10 HEPES. All solutions were adjusted to pH 7.4 with NaOH and 280 mOsm with sucrose. No Cl^− currents were evident in any HEK-293 cells line, stably transfected or not, and no attempt was made to eliminate Cl^− currents from data records.
All electrophysiological data are from current records in which voltage offset was adjusted, pipette capacitance and whole cell capacitance were compensated and series resistance was compensated to >80%. Currents were filtered at 10 kHz and recorded at 40 kHz. In some cases, current records were off-line filtered at 1K. Current voltage relationships were recorded using an on-line P/−4 subtraction procedure to eliminate linear capacitative and leakage currents. Only recordings with less than 50 pA leakage current were used.
Several different protocols were used to determine the biophysical characteristics of currents in HEK-293 cells. The voltage dependence of activation was determined using “tail” currents. Cells were depolarized from a holding potential of −100 mV to test potentials ranging from −90 mV to +60 mV. Pulse durations varied and corresponded to the time to peak current measured at the corresponding test potentials. Following the conditioning pulse cells were re-polarized to −60 mV and the amplitude of the resulting “tail” current measured. The voltage dependence of inactivation was measured by depolarizing the cells to voltages ranging from −120 mV to 50 mV for 500 ms to inactivate the Ca^2+ channels. After this conditioning step the membrane was returned to the holding potential (−100 mV) for 3 ms and then depolarized a second time to +20 mV for 150 ms during which time the peak current was measured. Time constants for inactivation were measured by fitting a single exponential equation to the decay phase of currents elicited by voltage steps from −50 to +30 mV from a holding potential of −100 mV. Time constants for deactivation were measured by fitting either a single or a double exponential to the decay phase of tail currents.
To account for the inherent variation in calcium current density in the HEK-Cav3.1 stable cell line the averaged current density of each test group of cells was normalized to the mean current density of a control group of cells. A minimum of 5 cells (typically 7 to 10) from each group was used to calculate the mean current densities of test and control cells. At least two independent transfections were performed for each test condition. […]

- Inhibitory function on Cav3.1 calcium current [1]: no effect on Cav3.1 calcium current
- Effect on Cav3.1 calcium current density [2]: does not alter calcium current density
B1: γ1: wild-type calcium channel γ1 subunit (protein, UniProt Q06432 1-222, looked up)
Voltage-dependent calcium …: MSQTKMLKVRVTLFCILAGIVLAMTAVVTDHWAVLSPHMEHHNTTCEAAHFGLWRICTKRIPMDDSKTCGPITLPGEKNCSYFRHFNPGESSEIFEFTTQKEYSISAAAIAIFSLGFIILGSLCVLLSLGKKRDYLLRPASMFYAFAGLCILVSVEVMRQSVKRMIDSEDTVWIEYYYSWSFACACAAFILLFLGGLALLLFSLPRMPRNPWESCMDAEPEH

- Inhibitory function on Cav3.1 calcium current [1]: did not inhibit calcium current
- Inhibitory function on Cav3.1 calcium current ([1]; listed as A461): no longer inhibitory
- Effect on Cav3.1 calcium current density [2]: also altered Cav3.1 current density
B2: γ6 A46I: γ6 mutant, alanine 46 replaced by isoleucine (protein, UniProt Q9BXT2 1-260, looked up, variant A46I)
Voltage-dependent calcium …: MMWSNFFLQEENRRRGAAGRRRAHGQGRSGLTPEREGKVKLALLLIAVGATLAVLSVGTEFWVELNTYKANGSAVCEAAHLGLWKACTKRLWQADVPVDRDTCGPAELPGEANCTYFKFFTTGENARIFQRTTKKEVNLAAAVIAVLGLAVMALGCLCIIMVLSKGAEFLLRVGAVCFGLSGLLLLVSLEVFRHSVRALLQRVSPEPPPAPRLTYEYSWSLGCGVGAGLILLLGAGCFLLLTLPSWPWGSLCPKRGHRAT

- Normalized Current Density [1]: 67.6%
- Normalized Current Density ([1]; listed as G49A): 67.6%±5.9%
- Normalized current density, % of control ([2]; Cav3.1/HEK cells): 67.6%±5.9%
B3: γ6 G49A: γ6 with glycine 49 mutated to alanine (protein, UniProt Q9BXT2 1-260, looked up, variant G49A)
Voltage-dependent calcium …: B2 Voltage-dependent calcium … with I46A, G49A
